According to PMC5648539 (Science signaling, 2017):

Target: wild-type CXCL12 (stromal cell-derived factor-1) (UniProt P48061-2 22-89)
Assay: radioligand binding

Kd	Binder
1.45 nM	FLAG-tagged human CXCR4, wild type (receptor, UniProt P61073 1-352, looked up) MEGISIYTSDNYTEEMGSGDYDSMKEPCFREENANFNKIFLPTIYSIIFLTGIVGNGLVILVMGYQKKLRSMTDKYRLHLSVADLLFVITLPFWAVDAVANWYFGNFLCKAVHVIYTVNLYSSVLILAFISLDRYLAIVHATNSQRPRKLLAEKVVYVGVWIPALLLTIPDFIFANVSEADDRYICDRFYPNDLWVVVFQFQHIMVGLILPGIVILSCYCIIISKLSHSKGHQKRKALKTTVILILAFFACWLPYYIGISIDSFILLEIIKQGCEFENTVHKWISITEALAFFHCCLNPILYAFLGAKFKTSAQHALTSVSRGSSLKILSKGKRGGHSSVSTESESSSFHSS
45.7 nM	FLAG-tagged human CXCR4 Ile4Glu/Ile6Glu (receptor, UniProt P61073 1-352, looked up) MEGESEYTSDNYTEEMGSGDYDSMKEPCFREENANFNKIFLPTIYSIIFLTGIVGNGLVILVMGYQKKLRSMTDKYRLHLSVADLLFVITLPFWAVDAVANWYFGNFLCKAVHVIYTVNLYSSVLILAFISLDRYLAIVHATNSQRPRKLLAEKVVYVGVWIPALLLTIPDFIFANVSEADDRYICDRFYPNDLWVVVFQFQHIMVGLILPGIVILSCYCIIISKLSHSKGHQKRKALKTTVILILAFFACWLPYYIGISIDSFILLEIIKQGCEFENTVHKWISITEALAFFHCCLNPILYAFLGAKFKTSAQHALTSVSRGSSLKILSKGKRGGHSSVSTESESSSFHSS
